In PMC11574045, “A cofactor-induced repressive type of transcription factor condensation can be induced by synthetic peptides to suppress tumorigenesis” (The EMBO Journal, 2024):

B1: NR2F6 (protein, UniProt P10588 1-404, looked up)
Nuclear receptor subfamily 2 …: MAMVTGGWGGPGGDTNGVDKAGGYPRAAEDDSASPPGAASDAEPGDEERPGLQVDCVVCGDKSSGKHYGVFTCEGCKSFFKRSIRRNLSYTCRSNRDCQIDQHHRNQCQYCRLKKCFRVGMRKEAVQRGRIPHSLPGAVAASSGSPPGSALAAVASGGDLFPGQPVSELIAQLLRAEPYPAAAGRFGAGGGAAGAVLGIDNVCELAARLLFSTVEWARHAPFFPELPVADQVALLRLSWSELFVLNAAQAALPLHTAPLLAAAGLHAAPMAAERAVAFMDQVRAFQEQVDKLGRLQVDSAEYGCLKAIALFTPDACGLSDPAHVESLQEKAQVALTEYVRAQYPSQPQRFGRLLLRLPALRAVPASLISQLFFMRLVGKTPIETLIRDMLLSGSTFNWPYGSGQ
B2: NR2B3/RXRG (protein, UniProt P28705 1-463, looked up)
Retinoic acid receptor …: MYGNYSHFMKFPTGFGGSPGHTGSTSMSPSVALPTGKPMDSHPSYTDTPVSAPRTLSAVGTPLNALGSPYRVITSAMGPPSGALAAPPGINLVAPPSSQLNVVNSVSSSEDIKPLPGLPGIGNMNYPSTSPGSLVKHICAICGDRSSGKHYGVYSCEGCKGFFKRTIRKDLIYTCRDNKDCLIDKRQRNRCQYCRYQKCLVMGMKREAVQEERQRSRERAESEAECASSSHEDMPVERILEAELAVEPKTESYGDMNVENSTNDPVTNICHAADKQLFTLVEWAKRIPHFSDLTLEDQVILLRAGWNELLIASFSHRSVSVQDGILLATGLHVHRSSAHSAGVGSIFDRVLTELVSKMKDMQMDKSELGCLRAIVLFNPDAKGLSNPSEVETLREKVYATLEAYTKQKYPEQPGRFAKLLLRLPALRSIGLKCLEHLFFFKLIGDTPIDSFLMEMLETPLQIT
B3: NR1I3/CAR1 (protein, UniProt Q14994 1-352, looked up)
Nuclear receptor subfamily 1 …: MASREDELRNCVVCGDQATGYHFNALTCEGCKGFFRRTVSKSIGPTCPFAGSCEVSKTQRRHCPACRLQKCLDAGMRKDMILSAEALALRRAKQAQRRAQQTPVQLSKEQEELIRTLLGAHTRHMGTMFEQFVQFRPPAHLFIHHQPLPTLAPVLPLVTHFADINTFMVLQVIKFTKDLPVFRSLPIEDQISLLKGAAVEICHIVLNTTFCLQTQNFLCGPLRYTIEDGARVSPTVGFQVEFLELLFHFHGTLRKLQLQEPEYVLLAAMALFSPDRPGVTQRDEIDQLQEEMALTLQSYIKGQQRRPRDRFLYAKLLGLLAELRSINEAYGYQIQHIQGLSAMMPLLQEICS
B4: NRIP1 (protein, UniProt P48552 1-1158, looked up)
Nuclear receptor-interacting …: MTHGEELGSDVHQDSIVLTYLEGLLMHQAAGGSGTAVDKKSAGHNEEDQNFNISGSAFPTCQSNGPVLNTHTYQGSGMLHLKKARLLQSSEDWNAAKRKRLSDSIMNLNVKKEALLAGMVDSVPKGKQDSTLLASLLQSFSSRLQTVALSQQIRQSLKEQGYALSHDSLKVEKDLRCYGVASSHLKTLLKKSKVKDQKPDTNLPDVTKNLIRDRFAESPHHVGQSGTKVMSEPLSCAARLQAVASMVEKRASPATSPKPSVACSQLALLLSSEAHLQQYSREHALKTQNANQAASERLAAMARLQENGQKDVGSYQLPKGMSSHLNGQARTSSSKLMASKSSATVFQNPMGIIPSSPKNAGYKNSLERNNIKQAANNSLLLHLLKSQTIPKPMNGHSHSERGSIFEESSTPTTIDEYSDNNPSFTDDSSGDESSYSNCVPIDLSCKHRTEKSESDQPVSLDNFTQSLLNTWDPKVPDVDIKEDQDTSKNSKLNSHQKVTLLQLLLGHKNEENVEKNTSPQGVHNDVSKFNTQNYARTSVIESPSTNRTTPVSTPPLLTSSKAGSPINLSQHSLVIKWNSPPYVCSTQSEKLTNTASNHSMDLTKSKDPPGEKPAQNEGAQNSATFSASKLLQNLAQCGMQSSMSVEEQRPSKQLLTGNTDKPIGMIDRLNSPLLSNKTNAVEENKAFSSQPTGPEPGLSGSEIENLLERRTVLQLLLGNPNKGKSEKKEKTPLRDESTQEHSERALSEQILMVKIKSEPCDDLQIPNTNVHLSHDAKSAPFLGMAPAVQRSAPALPVSEDFKSEPVSPQDFSFSKNGLLSRLLRQNQDSYLADDSDRSHRNNEMALLESKNLCMVPKKRKLYTEPLENPFKKMKNNIVDAANNHSAPEVLYGSLLNQEELKFSRNDLEFKYPAGHGSASESEHRSWARESKSFNVLKQLLLSENCVRDLSPHRSNSVADSKKKGHKNNVTNSKPEFSISSLNGLMYSSTQPSSCMDNRTFSYPGVVKTPVSPTFPEHLGCAGSRPESGLLNGCSMPSEKGPIKWVITDAEKNEYEKDSPRLTKTNPILYYMLQKGGNSVTSRETQDKDIWREASSAESVSQVTAKEELLPTAETKASFFNLRSPYNSHMGNNASRPHSANGEVYGLLGSVLTIKKESE
B5: ATF7 (protein, UniProt P17544 1-483, looked up)
Cyclic AMP-dependent …: MGDDRPFVCNAPGCGQRFTNEDHLAVHKHKHEMTLKFGPARTDSVIIADQTPTPTRFLKNCEEVGLFNELASSFEHEFKKAADEDEKKAAAGPLDMSLPSTPDIKIKEEEPVEVDSSPPDSPASSPCSPPLKEKEVTPKPVLISTPTPTIVRPGSLPLHLGYDPLHPTLPSPTSVITQAPPSNRQMGSPTGSLPLVMHLANGQTMPVLPGPPVQMPSVISLARPVSMVPNIPGIPGPPVNSSGSISPSGHPIPSEAKMRLKATLTHQVSSINGGCGMVVGTASTMVTARPEQSQILIQHPDAPSPAQPQVSPAQPTPSTGGRRRRTVDEDPDERRQRFLERNRAAASRCRQKRKLWVSSLEKKAEELTSQNIQLSNEVTLLRNEVAQLKQLLLAHKDCPVTALQKKTQGYLESPKESSEPTGSPAPVIQHSSATAPSNGLSVRSAAEAVATSVLTQMASQRTELSMPIQSHVIMTPQSQSAGR
B6: NR3C2 (protein, UniProt P08235 1-984, looked up)
Mineralocorticoid receptor: METKGYHSLPEGLDMERRWGQVSQAVERSSLGPTERTDENNYMEIVNVSCVSGAIPNNSTQGSSKEKQELLPCLQQDNNRPGILTSDIKTELESKELSATVAESMGLYMDSVRDADYSYEQQNQQGSMSPAKIYQNVEQLVKFYKGNGHRPSTLSCVNTPLRSFMSDSGSSVNGGVMRAVVKSPIMCHEKSPSVCSPLNMTSSVCSPAGINSVSSTTASFGSFPVHSPITQGTPLTCSPNVENRGSRSHSPAHASNVGSPLSSPLSSMKSSISSPPSHCSVKSPVSSPNNVTLRSSVSSPANINNSRCSVSSPSNTNNRSTLSSPAASTVGSICSPVNNAFSYTASGTSAGSSTLRDVVPSPDTQEKGAQEVPFPKTEEVESAISNGVTGQLNIVQYIKPEPDGAFSSSCLGGNSKINSDSSFSVPIKQESTKHSCSGTSFKGNPTVNPFPFMDGSYFSFMDDKDYYSLSGILGPPVPGFDGNCEGSGFPVGIKQEPDDGSYYPEASIPSSAIVGVNSGGQSFHYRIGAQGTISLSRSARDQSFQHLSSFPPVNTLVESWKSHGDLSSRRSDGYPVLEYIPENVSSSTLRSVSTGSSRPSKICLVCGDEASGCHYGVVTCGSCKVFFKRAVEGQHNYLCAGRNDCIIDKIRRKNCPACRLQKCLQAGMNLGARKSKKLGKLKGIHEEQPQQQQPPPPPPPPQSPEEGTTYIAPAKEPSVNTALVPQLSTISRALTPSPVMVLENIEPEIVYAGYDSSKPDTAENLLSTLNRLAGKQMIQVVKWAKVLPGFKNLPLEDQITLIQYSWMCLSSFALSWRSYKHTNSQFLYFAPDLVFNEEKMHQSAMYELCQGMHQISLQFVRLQLTFEEYTIMKVLLLLSTIPKDGLKSQAAFEEMRTNYIKELRKMVTKCPNNSGQSWQRFYQLTKLLDSMHDLVSDLLEFCFYTFRESHALKVEFPAMLVEIISDQLPKVESGNAKPLYFHRK
B7: NR5A1/FTZ-F1A (protein, UniProt P33242 1-462, looked up)
Steroidogenic factor 1: MDYSYDEDLDELCPVCGDKVSGYHYGLLTCESCKGFFKRTVQNNKHYTCTESQSCKIDKTQRKRCPFCRFQKCLTVGMRLEAVRADRMRGGRNKFGPMYKRDRALKQQKKAQIRANGFKLETGPPMGVPPPPPPPPDYMLPPSLHAPEPKALVSGPPSGPLGDFGAPSLPMAVPGPHGPLAGYLYPAFSNRTIKSEYPEPYASPPQQPGPPYSYPEPFSGGPNVPELILQLLQLEPEEDQVRARIVGCLQEPAKSRSDQPAPFSLLCRMADQTFISIVDWARRCMVFKELEVADQMTLLQNCWSELLVLDHIYRQVQYGKEDSILLVTGQEVELSTVAVQAGSLLHSLVLRAQELVLQLHALQLDRQEFVCLKFLILFSLDVKFLNNHSLVKDAQEKANAALLDYTLCHYPHCGDKFQQLLLCLVEVRALSMQAKEYLYHKHLGNEMPRNNLLIEMLQAKQT
B8: NR2C1/TR2A (protein, UniProt Q505F1 1-590, looked up)
Nuclear receptor subfamily 2 …: MATIEEIAHQIIDQQMGEIVTEQQTGQKIQIVTALDHSTQGKQFILANHEGSTPGKVFLTTPDAAGVNQLFFTSPDLSAPHLQLLTEKSPDQGPNKVFDLCVVCGDKASGRHYGAITCEGCKGFFKRSIRKNLVYSCRGSKDCVINKHHRNRCQYCRLQRCIAFGMKQDSVQCERKPIEVSREKSSNCAASTEKIYIRKDLRSPLAATPTFVTDSETARSAGLLDSGMFVNIHPSGIKTEPAMLMAPDKAESCQGDLSTLASVVTSLANLGKAKDLSHCGGDMPVVQSLRNGDTSFGAFHHDIQTNGDVSRAFDTLAKALTPGESSACQSPEEGMEGSPHLIAGEPSFVEKEGPLLSESHVAFRLTMPSPMPEYLNVHYIGESASRLLFLSMHWALSIPSFQALGQENSISLVKAYWNELFTLGLAQCWQVMNVATILATFVNCLHSSLQQDKMSPERRKSLMEHIFKLQEFCNSMVKLCIDGHEYAYLKAIVLFSPDHPGLENMELIERFQEKAYVEFQDYITRTYPDDTYRLSRLLLRLPALRLMNATITEELFFKGLIGNVRIDSVIPHILKMEPADYNSQIIGHSL

tested on: HEK293FT cells transfected with TF library; assay: Screening of TF condensates based on fluorescent puncta; type: cell-based; conditions: Figure 1B numerical data; TF library screen, one value per transcriptional factor
In short: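 HEK293FT, PEI transfection of TF library, 60 h; ±glucose 12 h; 4% PFA fix, 0.05% Triton X-100 permeabilization, 5% BSA block; anti-Flag/anti-GAL4 overnight at 4 °C, Alexa 488 secondary 1 h; high-content imaging, 50 fields/well.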

Point of comparison: B8, “Z score of condensed fraction” value -0.6816. Against it:
- B1 — higher, 2.586
- B2 — lower, -0.7251
- B3 — lower, -0.6844
- B4 — higher, 2.676
- B5 — higher, -0.2253
- B6 — lower, -0.7191
- B7 — higher, -0.1726
